Test results from article PMC3085893 (European journal of cell biology, 2011).

B1: GFP-AFAP1L1 (Actin Filament Associated Protein 1 Like 1) (natural protein, human, UniProt Q8TED9 1-768, looked up)
chain: MDRGQVLEQLLPELTGLLSLLDHEYLSDTTLEKKMAVASILQSLQPLPAKEVSYLYVNTADLHSGPSFVESLFEEFDCDLSDLRDMPEDDGEPSKGASPELAKSPRLRNAADLPPPLPNKPPPEDYYEEALPLGPGKSPEYISSHNGCSPSHSIVDGYYEDADSSYPATRVNGELKSSYNDSDAMSSSYESYDEEEEEGKSPQPRHQWPSEEASMHLVRECRICAFLLRKKRFGQWAKQLTVIREDQLLCYKSSKDRQPHLRLALDTCSIIYVPKDSRHKRHELRFTQGATEVLVLALQSREQAEEWLKVIREVSKPVGGAEGVEVPRSPVLLCKLDLDKRLSQEKQTSDSDSVGVGDNCSTLGRRETCDHGKGKKSSLAELKGSMSRAAGRKITRIIGFSKKKTLADDLQTSSTEEEVPCCGYLNVLVNQGWKERWCRLKCNTLYFHKDHMDLRTHVNAIALQGCEVAPGFGPRHPFAFRILRNRQEVAILEASCSEDMGRWLGLLLVEMGSRVTPEALHYDYVDVETLTSIVSAGRNSFLYARSCQNQWPEPRVYDDVPYEKMQDEEPERPTGAQVKRHASSCSEKSHRVDPQVKVKRHASSANQYKYGKNRAEEDARRYLVEKEKLEKEKETIRTELIALRQEKRELKEAIRSSPGAKLKALEEAVATLEAQCRAKEERRIDLELKLVAVKERLQQSLAGGPALGLSVSSKPKSGETANKPQNSVPEQPLPVNCVSELRKRSPSIVASNQGRVLQKAKEWEMKKT
B2: GFP-AFAP1 (Actin Filament-Associated Protein of 110 kDa) (natural protein, UniProt Q8N556 1-730, looked up)
chain: MEELIVELRLFLELLDHEYLTSTVREKKAVITNILLRIQSSKGFDVKDHAQKQETANSLPAPPQMPLPEIPQPWLPPDSGPPPLPTSSLPEGYYEEAVPLSPGKAPEYITSNYDSDAMSSSYESYDEEEEDGKGKKTRHQWPSEEASMDLVKDAKICAFLLRKKRFGQWTKLLCVIKDTKLLCYKSSKDQQPQMELPLQGCNITYIPKDSKKKKHELKITQQGTDPLVLAVQSKEQAEQWLKVIKEAYSGCSGPVDSECPPPPSSPVHKAELEKKLSSERPSSDGEGVVENGITTCNGKEQVKRKKSSKSEAKGTVSKVTGKKITKIISLGKKKPSTDEQTSSAEEDVPTCGYLNVLSNSRWRERWCRVKDNKLIFHKDRTDLKTHIVSIPLRGCEVIPGLDSKHPLTFRLLRNGQEVAVLEASSSEDMGRWIGILLAETGSSTDPEALHYDYIDVEMSASVIQTAKQTFCFMNRRVISANPYLGGTSNGYAHPSGTALHYDDVPCINGSLKGKKPPVASNGVTGKGKTLSSQPKKADPAAVVKRTGSNAAQYKYGKNRVEADAKRLQTKEEELLKRKEALRNRLAQLRKERKDLRAAIEVNAGRKPQAILEEKLKQLEEECRQKEAERVSLELELTEVKESLKKALAGGVTLGLAIEPKSGTSSPQSPVFRHRTLENSPISSCDTSDTEGPVPVNSAAVLKKSQAAPGSSPCRGHVLRKAKEWELKNGT

What was measured:
GST-cortactin SH3 domain = GST-cortactin SH3 domain (UniProt Q14247 492-550); test: pull-down
Chain of GST-cortactin SH3 domain (Q14247 492-550): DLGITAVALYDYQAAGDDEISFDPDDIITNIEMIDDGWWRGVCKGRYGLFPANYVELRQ

GST-Src SH3 domain = GST-Src SH3 domain (UniProt P12931 84-145); test: pull-down

Row | Binder | fold increase in the ratio pulled down over GST control (GST-cortactin SH3 domain) | fold increase in the ratio pulled down over GST control (GST-Src SH3 domain)
1 | B1 | ~9 fold | –
2 | B2 | – | 14 fold
